# According to US20240307507A1, “LACTOFERRIN COMPOSITIONS AND METHODS OF USE” (LACTEA THERAPEUTICS LLC, priority 2021, published 2024):
# What was measured:
# [1] = ELISA antibody binding of Lactoferrin; details: same amount of protein by weight loaded
# Procedure: Lactoferrin percentage can be assessed by an enzyme-linked immunosorbent assay (ELISA). In some instances, an ELISA can distinguish the percentage of Lactoferrin in a native protein conformation, such as by using an antibody that specifically binds the native protein conformation of Lactoferrin.
# Lactoferrin purity was also assessed by ELISA.
# [2] = system: ECM of primary buccal cells; assay: Lactoferrin ECM association by immunofluorescence, primary buccal cells; assay type: cell-based; details: 100 ug/mL, 1 hr, 37 C
# Procedure: Primary buccal cells were next cultured according to a standard protocol (e.g., see Russo et al. Cytotechnology. 2016 October; 68(5): 2105-2114; herein incorporated by reference for all purposes). […] Immunofluorescence imaging was performed as previously described.
# SARS-COV-2 = SARS-COV-2 Cytopathic Effect (CPE) reduction assay in Vero E6 cells; assay type: cell-based; details: Vero E6 cells, neutral red, three days post-infection
# [3] = Differential Scanning Calorimetry (DSC) unfolding of apolactoferrin and hololactoferrin forms; assay type: physicochemical
# Procedure: The assay was also performed with heat-treated API-E2 Lactoferrin. API-E2 Lactoferrin was heated across a range of 50-100° C.
# [4] = DSC iron binding capability with excess iron chloride; details: iron chloride in 1000× molar excess
# Procedure: The DSC assay was further used to assess Lactoferrin bioactivity, specifically the iron binding capability of the API-E2 Lactoferrin. Iron chloride (FeC13) was added in 1000× molar excess to API-E2 Lactoferrin. In the presence of excess iron, the API-E2 lactoferrin will bind the iron to its open iron binding site.
# [5] = system: Salivary bacteria (including Lactobacillus, Lactococcus, and Streptococcus mutans); assay: Salivary bacteria acid production by pH testing; assay type: cell-based; details: with sucrose, start pH 7, entire 6 hour period
# Procedure: Salivary bacteria (including Lactobacillus, Lactococcus, and Streptococcus mutans) produce acid during growth. This acidification is strongly associated with tooth decay, particularly when it results in pH below 5.5, which is a clinically relevant threshold. A slurry of these bacteria were treated with sucrose to stimulate growth, as well as varying concentrations of API-E2 lactoferrin. Upon the addition of sucrose and API-E2 lactoferrin, the pH was adjusted to 7 through a titration and the change in pH was subsequently monitored over the next 6 hours.
# E. coli = assay: Zone of inhibition test; assay type: cell-based
# Procedure: A zone of inhibition test was performed to assess bioactivity of API-E2 Lactoferrin. A plate with E. coli was cultured with 100 μg/mL, 10 μg/mL, 1 μg/mL, and 0.1 μg/mL API-E2 Lactoferrin added to paper circles and allowed to diffuse out.
# lactoperoxidase (LPO) = assay: Enzymatic colour assay for lactoperoxidase (LPO) activity; assay type: biochemical; details: colorimetric peroxidase substrate turning blue
# Excerpt: An enzymatic assay for lactoperoxidase (LPO) activity was developed utilizing a molecule which in the presence of peroxidase activity turns a blue color.
molecule,measurement,setting,value
"API-E2: purified bovine lactoferrin from raw, untreated milk produced according to Example 1 (protein) APRKNVRWCTISQPEWFKCRRWQWRMKKLGAPSITCVRRAFALECIRAIAEKKADAVTLDGGMVFEAGRDPYKLRPVAAEIYGTKESPQTHYYAVAVVKKGSNFQLDQLQGRKSCHTGLGRSAGWIIPMGILRPYLSWTESLEPLQGAVAKFFSASCVPCIDRQAYPNLCQLCKGEGENQCACSSREPYFGYSGAFKCLQDGAGDVAFVKETTVFENLPEKADRDQYELLCLNNSRAPVDAFKECHLAQVPSHAVVARSVDGKEDLIWKLLSKAQEKFGKNKSRSFQLFGSPPGQRDLLFKDSALGFLRIPSKVDSALYLGSRYLTTLKNLRETAEEVKARYTRVVWCAVGPEEQKKCQQWSQQSGQNVTCATASTTDDCIVLVLKGEADALNLDGGYIYTAGKCGLVPVLAENRKSSKHSSLDCVLRPTEGYLAVAVVKKANEGLTWNSLKDKKSCHTAVDRTAGWNIPMGLIVNQTGSCAFDEFFSQSCAPGADPKSRLCALCAGDDQGLDKCVPNSKEKYYGYTGAFRCLAEDVGDVAFVKNDTVWENTNGESTADWAKNLNREDFRLLCLDGTRKPVTEAQSCHLAVAPNHAVVSRSDRAAHVKQVLLHQQALFGKNGKNCPDKFCLFKSETKNLLFNDNTECLAKLGGRPTYEEYLGTEYVTAIANLKKCSTSPLLEACAFLTR",increase in antibody binding relative to existing research standards,[1],30%
same,ECM association of Lactoferrin,[2],strong binding along the ECM
same,EC50,SARS-COV-2,90 nM
same,"Delta H, apolactoferrin peak",[3]; 10 mg/mL,111.4 ± 2.2 kcal/mol
same,"Delta H, hololactoferrin peak",[3]; 10 mg/mL,151.2 ± 1.72 kcal/mol
same,"% of Total, apolactoferrin",[3]; native sample without added iron,91.26 +/− 1.39% ^
same,available Apolactoferrin shifted to the Hololactoferrin form,[4],100%
same,pH maintained over testing period,[5]; 1 mg/mL,above 5.5
same,pH maintained over testing period,[5]; 10 mg/mL,above 5.5
same,zone of inhibition,E. coli; 0.1 μg/mL on paper circles,No zone of inhibition
same,zone of inhibition,E. coli; 1 μg/mL on paper circles,limited zone of inhibition
same,zone of inhibition,E. coli; 10 ug/mL on paper circles,complete inhibition
same,zone of inhibition,E. coli; 100 μg/mL on paper circles,complete inhibition
same,LPO enzymatic activity in the sample,lactoperoxidase (LPO),neither detected
"Lactoferrin (“Reagent”): purchased laboratory reagent grade Lactoferrin [Sigma Bovine Colostrum Lactoferrin] (protein, UniProt P24627 20-708, looked up) Lactotransferrin: APRKNVRWCTISQPEWFKCRRWQWRMKKLGAPSITCVRRAFALECIRAIAEKKADAVTLDGGMVFEAGRDPYKLRPVAAEIYGTKESPQTHYYAVAVVKKGSNFQLDQLQGRKSCHTGLGRSAGWIIPMGILRPYLSWTESLEPLQGAVAKFFSASCVPCIDRQAYPNLCQLCKGEGENQCACSSREPYFGYSGAFKCLQDGAGDVAFVKETTVFENLPEKADRDQYELLCLNNSRAPVDAFKECHLAQVPSHAVVARSVDGKEDLIWKLLSKAQEKFGKNKSRSFQLFGSPPGQRDLLFKDSALGFLRIPSKVDSALYLGSRYLTTLKNLRETAEEVKARYTRVVWCAVGPEEQKKCQQWSQQSGQNVTCATASTTDDCIVLVLKGEADALNLDGGYIYTAGKCGLVPVLAENRKSSKHSSLDCVLRPTEGYLAVAVVKKANEGLTWNSLKDKKSCHTAVDRTAGWNIPMGLIVNQTGSCAFDEFFSQSCAPGADPKSRLCALCAGDDQGLDKCVPNSKEKYYGYTGAFRCLAEDVGDVAFVKNDTVWENTNGESTADWAKNLNREDFRLLCLDGTRKPVTEAQSCHLAVAPNHAVVSRSDRAAHVKQVLLHQQALFGKNGKNCPDKFCLFKSETKNLLFNDNTECLAKLGGRPTYEEYLGTEYVTAIANLKKCSTSPLLEACAFLTR",ECM association of Lactoferrin,[2],only limited ECM association
same,EC50,SARS-COV-2,140 nM
same,estimated ratio of the apolactoferrin to hololactoferrin peak,[3],nearly equal
same,"Tm, apolactoferrin peak",[3]; 10 mg/mL,55 C
same,"Tm, hololactoferrin peak",[3]; 10 mg/mL,85 C
same,LPO enzymatic activity in the sample,lactoperoxidase (LPO),does not result in a positive enzymatic reaction
"heat-treated API-E2 Lactoferrin: API-E2 Lactoferrin heated across a range of 50-100° C. (protein, UniProt P24627 20-708, looked up, heat-treated) Lactotransferrin: APRKNVRWCTISQPEWFKCRRWQWRMKKLGAPSITCVRRAFALECIRAIAEKKADAVTLDGGMVFEAGRDPYKLRPVAAEIYGTKESPQTHYYAVAVVKKGSNFQLDQLQGRKSCHTGLGRSAGWIIPMGILRPYLSWTESLEPLQGAVAKFFSASCVPCIDRQAYPNLCQLCKGEGENQCACSSREPYFGYSGAFKCLQDGAGDVAFVKETTVFENLPEKADRDQYELLCLNNSRAPVDAFKECHLAQVPSHAVVARSVDGKEDLIWKLLSKAQEKFGKNKSRSFQLFGSPPGQRDLLFKDSALGFLRIPSKVDSALYLGSRYLTTLKNLRETAEEVKARYTRVVWCAVGPEEQKKCQQWSQQSGQNVTCATASTTDDCIVLVLKGEADALNLDGGYIYTAGKCGLVPVLAENRKSSKHSSLDCVLRPTEGYLAVAVVKKANEGLTWNSLKDKKSCHTAVDRTAGWNIPMGLIVNQTGSCAFDEFFSQSCAPGADPKSRLCALCAGDDQGLDKCVPNSKEKYYGYTGAFRCLAEDVGDVAFVKNDTVWENTNGESTADWAKNLNREDFRLLCLDGTRKPVTEAQSCHLAVAPNHAVVSRSDRAAHVKQVLLHQQALFGKNGKNCPDKFCLFKSETKNLLFNDNTECLAKLGGRPTYEEYLGTEYVTAIANLKKCSTSPLLEACAFLTR",DSC apolactoferrin and hololactoferrin peaks detected,[3]; same conditions as API-E2,loss in both detectable peaks
